{"source": "patent US20210267939A1", "about": "“COMPOSITIONS AND METHODS FOR TREATING NAFLD/NASH AND RELATED DISEASE PHENOTYPES” (priority 2018, published 2021)", "key": {"[1]": {"target": "147 kDa GST-tagged human ACL (Sigma, SRP0288) (UniProt P53396)"}, "[2]": {"system": "BCKD E1 (an alpha2beta2 heterotetramer)"}, "[3]": {"system": "AKT", "test": "AKT ser473 phosphorylation in Fao hepatoma cells", "format": "cell-based", "conditions": "10 μM for 1 hour", "procedure": "Cell culture studies: Fao hepatoma cells (Sigma) were cultured in RPMI-1640 (Gibco) containing 10% FBS (Sigma). […] Human embryonic kidney (HEK) 293 cells were used to visualize localization of CMV-ΔMTS-BDK-GFP and control CMV-GFP constructs by confocal microscopy. Cells were plated and transfected in a 96 well glass bottom plate that had been pre-coated with poly-D lysine solution for 1-hour at room temperature. For transfection, cells were incubated in Opti-mem containing 1.5 μl of Mirus, TransIT-293 transfection reagent and 1 μg DNA per well. After 24 hours, mitochondrial and nuclear staining was performed in live cells using Image-IT Live Mito and nuclear labeling Kit (Cell permeant MitoTracker Red CMXRos (579/599 nm) and Hoechst 33342 (350/461 nm) ThermoFisher). Confocal images were captured using a Zeiss LSM 510 inverted confocal microscope using a 405 diode for Hoechst, Argon for GFP, and HeNe 561 for MitoTracker. Images were captured in one plane using a 63× oil objective. Each wavelength was acquired separately and then consolidated after acquisition.\nImmunoblotting: Tissue lysates used for immunoblotting were prepared in Cell Lysis Buffer (Cell Signaling Technologies) containing protease inhibitor tablets (Roche), phosphatase inhibitor cocktails 2 and 3 (Sigma), and 10 mM PMSF. […] Immunoblots were developed using a Li-Cor Odyssey CLx and quantified using the Li-Cor software."}, "[4]": {"target": "V5-tagged human ACL purified from Fao hepatoma cells (UniProt P53396)"}}}
{"molecule": "40 kDa catalytic subunit of bovine PKA (Promega, V5161)", "values": [{"measurement": "incorporation of [gamma-32P]-phosphoryl group into ACL (purified proteins, SDS gel, autoradiograph)", "setting": "[1]", "result": "PKA caused a clear increase in ^32P labeling of ACL"}, {"measurement": "32P phosphorylation of BCKDH (purified proteins, SDS gel, autoradiograph)", "setting": "[2]", "result": "PKA caused a lesser, but still clear increase in BCKDH phosphorylation"}]}
{"molecule": "O=c1[nH]c2ccccc2n1C1CCN(Cc2ccc(-c3[nH]c4cc5ncnc5cc4nc3-c3ccccc3)cc2)CC1", "note": "[A6730]", "values": [{"measurement": "phosphorylation of ser473 on AKT", "setting": "[3]", "result": "reduce"}]}
{"molecule": "MBP-BDK (maltose-binding protein-tagged mature BDK lacking the mitochondrial-targeting pre-sequence; amino acid residue 31-382)", "values": [{"measurement": "incorporation of [gamma-32P]-phosphoryl group into ACL (purified proteins, SDS gel, autoradiograph)", "setting": "[1]", "result": "MBP-BDK also caused phosphorylation of ACL, albeit to a lesser extent than PKA"}, {"measurement": "32P phosphorylation of the purified e1a subunit of BCKDH (purified proteins, SDS gel, autoradiograph)", "setting": "[2]", "result": "MBP-BDK also caused a robust increase in phosphorylation of the purified e1a subunit of BCKDH"}]}
{"molecule": "V5 tagged human BDK purified from Fao hepatoma cells", "values": [{"measurement": "ACL phosphorylation on ser455 measured by immunoblot after mixing of the purified proteins with ATP", "setting": "[4]", "result": "This study confirmed that BDK specifically phosphorylates ser455 of the V5-tagged human ACL"}]}
